The values that follow come from paper PMC3616968, “Post-Transcriptional Regulation of the Trypanosome Heat Shock Response by a Zinc Finger Protein”.

The data set concerns the target T1, ZC3H11-119 (Trypanosoma brucei, UniProt Q57W26 1-119).
T1 sequence: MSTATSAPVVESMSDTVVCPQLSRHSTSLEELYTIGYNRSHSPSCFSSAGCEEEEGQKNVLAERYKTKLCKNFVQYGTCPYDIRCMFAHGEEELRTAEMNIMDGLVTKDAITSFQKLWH
Description: EMSA; limiting probe titration; no binding; 20 mM Tris-HCl pH 8.0, 50 mM NaCl, 10 uM ZnCl2, 0.01% IGEPAL CA-630, 0.1 mg/ml tRNA, 10 ug/ml heparin (legends: 5 ug/ml or 10 mg/ml), room temperature 30 min; 100 pmol protein, 1 pmol RNA. The note with it: protein: recombinant; tags: His10 (called His-tagged). Background: In EMSA bound probe runs differently from free probe, usually more slowly.

B1: U23 (ssRNA)
RNA: UUUUUUUUUUUUUUUUUUUUUUU
In the case of B1, the binding result is on record as “no binding”.
